Laboratory results as given in US20030215852A1 (Pfizer, published 2003).

Target: T1, Pablo (pro-apoptotic Bcl-XL binding protein) (human, UniProt Q92558 1-559)
T1 sequence: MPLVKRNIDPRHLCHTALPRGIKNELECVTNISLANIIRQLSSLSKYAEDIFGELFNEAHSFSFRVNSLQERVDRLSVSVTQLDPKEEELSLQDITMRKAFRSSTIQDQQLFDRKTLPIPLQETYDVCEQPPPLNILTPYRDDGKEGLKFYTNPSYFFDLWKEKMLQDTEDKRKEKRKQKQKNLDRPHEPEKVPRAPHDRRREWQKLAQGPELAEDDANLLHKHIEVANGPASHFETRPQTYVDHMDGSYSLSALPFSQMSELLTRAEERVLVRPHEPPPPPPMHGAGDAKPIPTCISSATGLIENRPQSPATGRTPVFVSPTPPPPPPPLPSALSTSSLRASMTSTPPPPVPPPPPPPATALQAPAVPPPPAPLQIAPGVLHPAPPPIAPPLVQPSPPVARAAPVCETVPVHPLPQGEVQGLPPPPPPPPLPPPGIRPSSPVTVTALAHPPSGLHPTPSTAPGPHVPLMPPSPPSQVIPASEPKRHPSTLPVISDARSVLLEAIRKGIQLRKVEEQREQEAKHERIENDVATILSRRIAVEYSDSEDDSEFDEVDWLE
Experiment: yeast two-hybrid assay

binding result: no binding
B1: pancortin 1 (other)
chain: MITNWMSQTLPSLVGLNTTKLSAAGGGTLDRSTGVLPTNPEESWQVYSSAQDSEGRCICTVVAPQQTMCSRDARTKQLRQLLEKVQNMSQSIEVLDRRTQRDLQYVEKMENQMKGLESKFKQVEESHKQHLARQFKAIKAKMDELRPLIPVLEEYKADAKLVLQFKEEVQNLTSVLNELQEEIGAYDYDELQSRVSNLEERLRACMQKLACGKLTGISDPVTVKTSGSRFGSWMTDPLAPEGDNRVWYMDGYHNNRFVREYKSMVDFMNTDNFTSHRLPHPWSGTGQVVYNGSIYFNKFQSHIIIRFDLKTETILKTRSLDYAGYNNMYHYAWGGHSDIDLMVDESGLWAVYATNQNAGNIVVSRLDPVSLQTLQTWNTSYPKRSAGEAFIICGTLYVTNGYSGGTKVHYAYQTNASTYEYIDIPFQNKYSHISMLDYNPKDRALYAWNNGHQILYNVTLFHVIRSDEL
notes: Tested in a yeast two-hybrid assay; also called BMZ
